Experimental findings from US20260374861 (published 2026) are described below.

One experiment has as its target human ILT4-ECD (human). Nature of the experiment: ELISA.
For experiment [1], the target named is human ILT4 (cell surface) (human). Nature of the experiment: FACS.
Experiment [2] deals with huILT4 protein (human). The experiment in a line: competition, FACS, blocking HLA-G.
In experiment [3] the target is huILT4 protein (human). The experiment in a line: competition, ELISA, blocking SEMA4A.
In a further experiment the target is monkey ILT4-ECD (cynomolgus). Nature of the experiment: ELISA.

Positions count from the first letter of the chain named.

Chain of huILT4 protein (human) (chain, as listed by the source): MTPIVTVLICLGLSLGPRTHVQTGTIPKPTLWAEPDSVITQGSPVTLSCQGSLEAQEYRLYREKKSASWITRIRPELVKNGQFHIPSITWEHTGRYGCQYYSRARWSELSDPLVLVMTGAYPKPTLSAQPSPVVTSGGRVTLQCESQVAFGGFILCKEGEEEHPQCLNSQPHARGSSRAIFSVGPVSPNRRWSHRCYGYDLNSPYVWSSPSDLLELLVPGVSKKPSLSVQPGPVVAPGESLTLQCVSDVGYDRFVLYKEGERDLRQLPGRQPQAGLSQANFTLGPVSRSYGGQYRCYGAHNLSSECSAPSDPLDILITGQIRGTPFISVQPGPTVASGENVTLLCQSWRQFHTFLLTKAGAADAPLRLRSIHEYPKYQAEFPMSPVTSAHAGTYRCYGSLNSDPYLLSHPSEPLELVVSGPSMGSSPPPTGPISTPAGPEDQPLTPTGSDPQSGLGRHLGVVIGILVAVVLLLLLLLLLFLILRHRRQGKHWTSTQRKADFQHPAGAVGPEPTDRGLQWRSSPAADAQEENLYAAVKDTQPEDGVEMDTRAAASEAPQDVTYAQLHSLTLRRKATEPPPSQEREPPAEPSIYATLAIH
Chain of human ILT4-ECD (human) (chain, as listed by the source): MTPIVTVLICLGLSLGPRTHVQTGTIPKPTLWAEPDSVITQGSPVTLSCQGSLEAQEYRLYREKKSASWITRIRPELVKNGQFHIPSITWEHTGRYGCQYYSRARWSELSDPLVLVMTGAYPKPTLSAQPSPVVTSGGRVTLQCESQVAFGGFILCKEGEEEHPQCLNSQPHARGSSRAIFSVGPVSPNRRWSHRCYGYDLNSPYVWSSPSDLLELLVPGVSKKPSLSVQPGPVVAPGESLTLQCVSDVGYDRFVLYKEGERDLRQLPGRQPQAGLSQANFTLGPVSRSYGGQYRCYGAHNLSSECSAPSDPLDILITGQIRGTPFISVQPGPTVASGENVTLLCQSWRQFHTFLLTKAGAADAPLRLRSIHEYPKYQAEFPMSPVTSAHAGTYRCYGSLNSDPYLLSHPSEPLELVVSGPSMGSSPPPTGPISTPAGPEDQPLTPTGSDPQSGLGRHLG
Chain of monkey ILT4-ECD (cynomolgus) (chain, as listed by the source): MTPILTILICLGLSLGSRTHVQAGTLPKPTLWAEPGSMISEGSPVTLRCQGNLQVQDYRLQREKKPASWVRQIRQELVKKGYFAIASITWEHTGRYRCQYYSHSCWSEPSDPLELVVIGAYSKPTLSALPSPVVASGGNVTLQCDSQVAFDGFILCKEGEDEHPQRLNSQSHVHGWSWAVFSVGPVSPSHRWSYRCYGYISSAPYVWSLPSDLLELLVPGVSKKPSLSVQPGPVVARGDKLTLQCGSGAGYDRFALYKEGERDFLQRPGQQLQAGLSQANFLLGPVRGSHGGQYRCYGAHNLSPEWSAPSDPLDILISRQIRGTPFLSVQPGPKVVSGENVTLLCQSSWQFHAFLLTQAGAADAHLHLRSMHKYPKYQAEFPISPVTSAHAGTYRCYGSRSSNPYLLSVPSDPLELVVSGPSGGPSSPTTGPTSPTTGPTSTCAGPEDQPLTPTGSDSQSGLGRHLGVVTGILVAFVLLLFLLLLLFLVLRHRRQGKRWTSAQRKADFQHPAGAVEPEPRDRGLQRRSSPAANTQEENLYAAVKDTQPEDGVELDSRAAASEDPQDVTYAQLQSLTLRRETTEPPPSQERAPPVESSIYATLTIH

B1: PR302259-1 (antibody, V domains shown)
VH: EVQLLESGGGLVQPGGSLRLSCAVSGFTFSSYAMSWVRQAPGKGLEWVSAISDNAGSTYYADSVKGRFTISRDNSKNTLHLQMNSLRAEDTAVYSCAKERQWLVLGVMDAWGQGASVTVSS
VL: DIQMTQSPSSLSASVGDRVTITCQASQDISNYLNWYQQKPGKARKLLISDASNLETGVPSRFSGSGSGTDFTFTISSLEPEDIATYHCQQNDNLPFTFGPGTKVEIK
For orientation: EC50 means the concentration at which the effect is half-maximal. As to B1, the values for the concentration giving a half-maximal response (EC50) (in the experiment with human ILT4-ECD; in experiment [1]) were 0.012 nM and 0.262 nM, respectively.

B2: PR302259 (antibody, V domains shown)
VH: B1 VH
VL: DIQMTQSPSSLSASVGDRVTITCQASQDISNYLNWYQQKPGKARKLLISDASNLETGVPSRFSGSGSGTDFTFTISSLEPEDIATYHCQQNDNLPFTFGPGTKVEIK
Usually IC50 stands for the concentration needed to halve the response being measured. For the molecule B2, the figures for the IC50 with huILT4 protein [2] and in the experiment with huILT4 protein [3] were 3.4 nM and 34.1 nM, respectively.

B3: PR302239 (antibody, V domains shown)
VH: QVQLQESGPGLVKPSETLSLTCTVSGDSISSYYWSWIRQPPGKGLEWIGFIYYSGSTNYNPSLKSRVTISVDTSKNQFSLKLTSVTAADTAVYYCANQLWFGESPFDYWGQGTLVTVSS
VL: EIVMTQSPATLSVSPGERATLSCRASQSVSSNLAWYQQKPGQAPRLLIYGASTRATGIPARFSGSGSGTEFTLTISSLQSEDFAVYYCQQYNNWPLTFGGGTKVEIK
In the case of B3, the IC50 with huILT4 protein [2] is 6.49 nM.

B4: PR302239-1 (antibody, V domains shown)
VH: B3 VH
VL: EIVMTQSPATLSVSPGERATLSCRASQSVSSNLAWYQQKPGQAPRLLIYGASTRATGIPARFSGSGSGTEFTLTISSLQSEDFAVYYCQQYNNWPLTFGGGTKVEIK
Turning to B4, the 50% effective concentration (EC50) amounted to 0.036 nM with human ILT4-ECD and 0.931 nM in experiment [1].

B5: PR302927 (antibody, V domains shown)
VH: EVQLLESGGGLVQPGGSLRLSCAASGFTFSSYAMSWVRQAPGKGLEWVSTINHIGDSTYYADSVKGRFTISRDNSKNTLYLQMNSLRAEDTAVYYCAKDQWFGVFDYWGQGTLVTVSS
VL: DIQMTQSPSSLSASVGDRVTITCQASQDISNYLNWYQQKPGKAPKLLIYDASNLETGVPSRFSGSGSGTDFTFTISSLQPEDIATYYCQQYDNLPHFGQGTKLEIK
B5 came in with a 50% effective concentration (EC50) in the experiment with human ILT4-ECD of 0.025 nM. The IC50 with huILT4 protein [2] worked out at 10.6 nM; with huILT4 protein [3] it was 61.5 nM.

B6: PR302949 (antibody, V domains shown)
VH: EVQLLESGGGLVQPGGSLRLSCAASGFTFSSYAMSWVRQAPGKGLEWVSSISGSDFSTYYADSVKGRFTISRDTSKNTLYLQMNSLRAEDTAVYYCAKDRQWLVSSFDFWGQGALVTVSS
VL: DIQMTQSPSSLSASVGDRVTITCQASQDISNYLNWYQQKPGKAPKLLIYDASNLETGVPSRFSGSGSGTDFTFTISSLQPEDIATYYCQQYDNLITFGQGTRLEIK
In the case of B6, the EC50 with human ILT4-ECD was 0.023 nM. The half-inhibitory concentration (IC50) in the experiment with huILT4 protein [2] is 8.86 nM; in the experiment with huILT4 protein [3], 47.9 nM.

B7: PR302702 (antibody, V domains shown)
VH: B6 VH with S31T, S35T, S57N, T74I, R100Q, Q101E, S105R, D108H, F109H, A114T
VL: DIQMTQFPSSLFAFVGDRVTITCQASQDISNYLNWYQQKAGKAPKLLINDASNLETGVPSRFSGSGFGTDFTFTISSLQPEDFATYYCQQYENLPTFGGGTKVEIK
Regarding B7, the concentration giving a half-maximal response (EC50) in the experiment with human ILT4-ECD was found to be 0.029 nM.

B8: PR302951 (antibody, V domains shown)
VH: B6 VH with G26R, S31T, D55G, S57N, R72S, T74S, F109Y, A114T
VL: B6 VL
As to B8, in the experiment with human ILT4-ECD, the concentration for a half-maximal effect (EC50) came out at 0.015 nM. The values for the half-maximal inhibitory concentration (IC50) in the experiment with huILT4 protein [2] and in the experiment with huILT4 protein [3] were 8.6 nM and 52.9 nM, respectively.

B9: PR302282 (antibody, V domains shown)
VH: QVQLVESGGTVVQSGRSLRLSCAASGFTFSSYGMHWVRQAPGKGLEWVAGMWYDGNYKYYADSVKGRFTISRDNSKNTLSLQMNSLRAEDTAVYYCARDSPIGVFDYWGQGTLVTVSS
VL: B6 VL
In the case of B9, the EC50 with human ILT4-ECD is 0.015 nM; in experiment [1], 1.88 nM. The 50% inhibitory concentration (IC50) in the experiment with huILT4 protein [3] came out at 48.1 nM.

B10: PR301366 (antibody, V domains shown)
VH: EVQLLESGGGLVQPGGSLRLSCAASGFTFSNYAMNWVRQAPGKGLEWVSVISVSGGSTYYADSVKGRFTISRDNSKNTLYLQMNSLRAEDTAVYYCAKDYYYDSGSYYDSFFDYWGQGTLVTVSS
VL: not shown
Consider B10, for which the EC50 amounted to 0.014 nM in the experiment with human ILT4-ECD, 0.401 nM with monkey ILT4-ECD and 0.362 nM in experiment [1]. The figures for the half-inhibitory concentration (IC50) with huILT4 protein [2] and in the experiment with huILT4 protein [3] were 3.99 nM and 34.8 nM, respectively.

B11: PR302934 (antibody, V domains shown)
VH: QVQLQQWGAGLLKPSETLSLTCAVYGGSFSGYYWSWIRQTLGKGLEWIGEVSHSGGTNYNPSLKSRVTISVDTSKNQFSLKLSSVTAADTAVYYCARSPYYGDYMYVFDIWGQGTMVTVSS
VL: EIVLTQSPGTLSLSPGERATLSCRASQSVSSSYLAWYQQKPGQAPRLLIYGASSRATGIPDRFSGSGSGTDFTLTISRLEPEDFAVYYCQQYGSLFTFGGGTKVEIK
Regarding B11, the figures for the EC50 in the experiment with human ILT4-ECD and with monkey ILT4-ECD were 0.012 nM and 0.047 nM, respectively.

B12: PR302950 (antibody, V domains shown)
VH: QVQLQESGPGLVKPSGTLSLTCAVSGGSISSSNWWSWVRQPPGKGLEWIGEVYHSGSTNYNPSLKSRVTISVDKSQNQFSLKLTSVTAADTAVYYCARVTGNKDYYYYDLDVWGQGTTVTVSS
VL: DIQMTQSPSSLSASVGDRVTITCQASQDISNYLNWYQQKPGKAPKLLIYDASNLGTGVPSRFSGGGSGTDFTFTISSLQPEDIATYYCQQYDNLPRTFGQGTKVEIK
In the experiment with human ILT4-ECD, B12 came in with an EC50 of 0.056 nM. The values for the half-inhibitory concentration (IC50) in the experiment with huILT4 protein [2] and with huILT4 protein [3] were 9.34 nM and 65 nM, respectively.

B13: PR302261 (antibody, V domains shown)
VH: EVQLLESGGGLVQSGGSLRLSCAASGFTFSSYAMSWVRQAPGKGLGWVSTISGSGGSAYYADSVKGRFTVSRDNSKKTLYLQMNSLRAEDTAVYFCAILSGDDAFDIWGQGTMVTVSS
VL: DVVMTQSPLSLPVTPGEPASISCRSSQSLLRGNGYNYLDWYLQKPGQSPQLLIYLGSNRASGVPDRFSGSGSGTDFTLKISRVEAEDVGIFYCMQALQSPLTFGGGTKVEIK
Consider B13, for which the figures for the EC50 with human ILT4-ECD and with monkey ILT4-ECD were 0.032 nM and 0.008 nM, respectively.

B14: PR303413 (antibody, V domains shown)
VH: QVQLVESGGGVVQPGRSLRLSCAASGFTFSSYGMHWVRQAPGKGLGWVAGIWYAGSNEYYVDSVKGRFIISRDNSKNTLYLQMNSLRAEDTAVYYCARDQGWGTMDAWGQGASVTVSS
VL: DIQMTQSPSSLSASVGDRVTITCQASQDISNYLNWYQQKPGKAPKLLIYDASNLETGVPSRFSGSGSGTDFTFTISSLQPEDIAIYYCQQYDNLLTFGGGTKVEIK
With B14, the concentration for a half-maximal effect (EC50) in the experiment with human ILT4-ECD worked out at 0.021 nM; in experiment [1], 0.345 nM. Moreover, the IC50 turned out to be 5.33 nM in the experiment with huILT4 protein [2] and 40.9 nM with huILT4 protein [3].

B15: PR302264 (antibody, V domains shown)
VH: QVQLQQWGAGLLKPSETLSLTCAVYGGSLSGYYWSWIRQPPGKGLEWIGEINHSGGTNYNPSLKSRVTISVPTSKNQFSLKLTSVTAADTAVYYCARGQQQLDWYFDLWGRGTLVTVSS
VL: EIVMTQSPATLSVSPGERATLSCRASQNIYSHLVWYQQKPGQAPRLLIYGASTRATGIPARFSGSGSGTEFTLTITSLQSEDFTVYYCQQYNDWPPITFGQGTRLEIR
In the case of B15, the results for the concentration for a half-maximal effect (EC50) with human ILT4-ECD and with monkey ILT4-ECD were 0.026 nM and 0.935 nM, respectively.
